Like-named read-outs stand apart in the source and are kept apart here.
Tests used:
Assay in all cases: SPR
Hck (2PA-YEEI) [1] = biological target: T1, Hck (2PA-YEEI) (UniProt P08631 1-526, C-terminal tail tyrosine of the YEEI motif constitutively phosphorylated; autophosphorylated at the activation loop tyrosine (Tyr-411 of Hck))
Hck (2PA-YEEI) [2] = biological target: T1, Hck (2PA-YEEI); remark: listed apart in the source
Hck (2PA-YEEI) [3] = biological target: T1, Hck (2PA-YEEI); remark: listed apart in the source

T1 sequence (P08631 other isoform, or with tags, fused parts or gaps): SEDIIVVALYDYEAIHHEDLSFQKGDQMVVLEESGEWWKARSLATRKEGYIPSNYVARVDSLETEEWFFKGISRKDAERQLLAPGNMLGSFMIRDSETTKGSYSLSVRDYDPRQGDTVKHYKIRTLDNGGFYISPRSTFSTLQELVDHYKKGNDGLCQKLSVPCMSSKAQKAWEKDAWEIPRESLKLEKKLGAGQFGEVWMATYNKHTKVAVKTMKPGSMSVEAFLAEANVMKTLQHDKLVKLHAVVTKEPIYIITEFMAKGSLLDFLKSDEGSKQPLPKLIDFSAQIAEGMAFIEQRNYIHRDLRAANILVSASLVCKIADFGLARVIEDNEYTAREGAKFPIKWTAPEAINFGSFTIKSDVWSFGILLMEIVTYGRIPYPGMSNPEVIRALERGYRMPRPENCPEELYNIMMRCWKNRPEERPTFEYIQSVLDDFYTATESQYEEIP

B1: Csk-Chk chimera (enzyme)
chain: MSAIQAAWPSGTECIAKYNFHGTAEQDLPFCKGDVLTIVAVTKDPNWYKAKNKVGREGIIPANYVQKREGVKAGTKLSLMPWFHGKITREQAERLLYPPETGLFLVRESTNYPGDYTLCVSCDGKVEHYRIMYHASKLSIDEEVYFENLMQLVEHYTSDADGLCTRLIKPKVMEGTVAAQDLTLGAQIGEGEFGAVLQGEYLGQKVAVKNIKCDVTAQAFLDETAVMTKMQHENLVRLLGVILHQGLYIVMEHVSKGNLVNFLRTRGRALVNTAQLLQFSLHVAEGMEYLESKKLVHRDLAARNILVSEDLVAKVSDFGLAKAERKGLDSSRLPVKWTAPEALKHGKFTSKSDVWSFGVLLWEVFSYGRAPYPKMSLKEVSEAVEKGYRMEPPEGCPGPVHVLMSSCWEAEPARRPPFRKLAEKLAREL
Kd (Hck (2PA-YEEI) [1]): 1270 nM

B2: Chk (R278A) (enzyme)
chain: MPTRRWAPGTQCITKCEHTRPKPGELAFRKGDVVTILEACENKSWYRVKHHTSGQEGLLAAGALREREALSADPKLSLMPWFHGKISGQEAVQQLQPPEDGLFLVRESARHPGDYVLCVSFGRDVIHYRVLHRDGHLTIDEAVFFCNLMDMVEHYSKDKGAICTKLVRPKRKHGTKSAEEELARAGWLLNLQHLTLGAQIGEGEFGAVLQGEYLGQKVAVKNIKCDVTAQAFLDETAVMTKMQHENLVRLLGVILHQGLYIVMEHVSKGNLVNFLRTAGRALVNTAQLLQFSLHVAEGMEYLESKKLVHRDLAARNILVSEDLVAKVSDFGLAKAERKGLDSSRLPVKWTAPEALKHGKFTSKSDVWSFGVLLWEVFSYGRAPYPKMSLKEVSEAVEKGYRMEPPEGCPGPVHVLMSSCWEAEPARRPPFRKLAEKLARELRSAGAPASVSGQDADGSTSPRSQEP
koff (Hck (2PA-YEEI) [2]): 0.000195 s⁻¹
Kd (Hck (2PA-YEEI) [3]): 13 nM

B3: Chk (R276A) (enzyme)
chain: MPTRRWAPGTQCITKCEHTRPKPGELAFRKGDVVTILEACENKSWYRVKHHTSGQEGLLAAGALREREALSADPKLSLMPWFHGKISGQEAVQQLQPPEDGLFLVRESARHPGDYVLCVSFGRDVIHYRVLHRDGHLTIDEAVFFCNLMDMVEHYSKDKGAICTKLVRPKRKHGTKSAEEELARAGWLLNLQHLTLGAQIGEGEFGAVLQGEYLGQKVAVKNIKCDVTAQAFLDETAVMTKMQHENLVRLLGVILHQGLYIVMEHVSKGNLVNFLATRGRALVNTAQLLQFSLHVAEGMEYLESKKLVHRDLAARNILVSEDLVAKVSDFGLAKAERKGLDSSRLPVKWTAPEALKHGKFTSKSDVWSFGVLLWEVFSYGRAPYPKMSLKEVSEAVEKGYRMEPPEGCPGPVHVLMSSCWEAEPARRPPFRKLAEKLARELRSAGAPASVSGQDADGSTSPRSQEP
koff (Hck (2PA-YEEI) [2]): 0.000208 s⁻¹
Kd (Hck (2PA-YEEI) [3]): 56 nM

B4: Chk (K387A) (enzyme)
chain: MPTQRWAPGTQCMTKCENSRPKPGELAFRKGDMVTILEACEDKSWYRAKHHSSGQEGLLAAAALRQREALSTDPKLSLMPWFHGKISGQEAIQQLQPPEDGLFLVRESARHPGDYVLCVSFGRDVIHYRVLHRDGHLTIDEAVCFCNLMDMVEHYTRDKGAICTKLVKPKRKQGAKSAEEELAKAGWLLDLQHLTLGAQIGEGEFGAVLQGEYLGQKVAVKNIKCDVTAQAFLDETAVMTKLQHRNLVRLLGVILHHGLYIVMEHVSKGNLVNFLRTRGRALVSTSQLLQFALHVAEGMEYLESKKLVHRDLAARNILVSEDLVAKVSDFGLAKAELRKGLDSSRLPVKWTAPEALKNGRFSSKSDVWSFGVLLWEVFSYGRAPYPAMSLKEVSEAVEKGYRMEPPDSCPGPVHTLMGSCWEAEPSRRPPFRKIVEKLGRELRSVGVAAPAGGQEAEGSAPTRSQDPGSGSHHHHHH
koff (Hck (2PA-YEEI) [2]): 0.00036 s⁻¹

B5: Chk (R382A) (enzyme)
chain: MPTQRWAPGTQCMTKCENSRPKPGELAFRKGDMVTILEACEDKSWYRAKHHSSGQEGLLAAAALRQREALSTDPKLSLMPWFHGKISGQEAIQQLQPPEDGLFLVRESARHPGDYVLCVSFGRDVIHYRVLHRDGHLTIDEAVCFCNLMDMVEHYTRDKGAICTKLVKPKRKQGAKSAEEELAKAGWLLDLQHLTLGAQIGEGEFGAVLQGEYLGQKVAVKNIKCDVTAQAFLDETAVMTKLQHRNLVRLLGVILHHGLYIVMEHVSKGNLVNFLRTRGRALVSTSQLLQFALHVAEGMEYLESKKLVHRDLAARNILVSEDLVAKVSDFGLAKAELRKGLDSSRLPVKWTAPEALKNGRFSSKSDVWSFGVLLWEVFSYGAAPYPKMSLKEVSEAVEKGYRMEPPDSCPGPVHTLMGSCWEAEPSRRPPFRKIVEKLGRELRSVGVAAPAGGQEAEGSAPTRSQDPGSGSHHHHHH
koff (Hck (2PA-YEEI) [2]): 0.000322 s⁻¹

B6: Chk (R280A) (enzyme)
chain: MPTQRWAPGTQCMTKCENSRPKPGELAFRKGDMVTILEACEDKSWYRAKHHSSGQEGLLAAAALRQREALSTDPKLSLMPWFHGKISGQEAIQQLQPPEDGLFLVRESARHPGDYVLCVSFGRDVIHYRVLHRDGHLTIDEAVCFCNLMDMVEHYTRDKGAICTKLVKPKRKQGAKSAEEELAKAGWLLDLQHLTLGAQIGEGEFGAVLQGEYLGQKVAVKNIKCDVTAQAFLDETAVMTKLQHRNLVRLLGVILHHGLYIVMEHVSKGNLVNFLRTRGAALVSTSQLLQFALHVAEGMEYLESKKLVHRDLAARNILVSEDLVAKVSDFGLAKAELRKGLDSSRLPVKWTAPEALKNGRFSSKSDVWSFGVLLWEVFSYGRAPYPKMSLKEVSEAVEKGYRMEPPDSCPGPVHTLMGSCWEAEPSRRPPFRKIVEKLGRELRSVGVAAPAGGQEAEGSAPTRSQDPGSGSHHHHHH
koff (Hck (2PA-YEEI) [2]): 0.00024 s⁻¹
Kd (Hck (2PA-YEEI) [3]): 35 nM

Reference: article PMC5547543 (2017)
